Earlier results in patent US6022890A, “Immunosuppressant tetracyclic triterpenes” (Merck & Co., Inc., priority 1998, dated 2000).

Target: T1, Kv 1.3 channels (CHO cells transfected with Kv 1.3 channels) (Homo sapiens, UniProt P22001)
T1 construct: expressed in transfected cells; host or cells: CHO cells
Details: stated for the reference blocker that defines the efflux window

T1 sequence (P22001 whole entry): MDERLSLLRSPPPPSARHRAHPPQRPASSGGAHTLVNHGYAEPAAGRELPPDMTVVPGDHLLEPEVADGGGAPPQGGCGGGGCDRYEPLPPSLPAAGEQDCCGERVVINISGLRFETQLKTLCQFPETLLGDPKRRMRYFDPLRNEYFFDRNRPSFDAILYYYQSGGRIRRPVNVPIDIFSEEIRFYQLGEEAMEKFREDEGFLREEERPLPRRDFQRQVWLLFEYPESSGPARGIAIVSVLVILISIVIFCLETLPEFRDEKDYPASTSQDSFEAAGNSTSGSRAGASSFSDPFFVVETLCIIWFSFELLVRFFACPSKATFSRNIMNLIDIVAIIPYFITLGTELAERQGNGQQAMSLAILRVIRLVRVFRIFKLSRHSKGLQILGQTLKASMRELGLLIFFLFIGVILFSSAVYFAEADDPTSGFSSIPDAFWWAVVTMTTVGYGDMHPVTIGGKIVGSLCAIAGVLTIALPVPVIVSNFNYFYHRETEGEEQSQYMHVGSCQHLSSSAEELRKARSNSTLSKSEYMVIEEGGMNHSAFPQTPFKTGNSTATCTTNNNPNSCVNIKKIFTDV

In the case of “margatoxin (TIINVKCTSPKQCLPPCKAQFGQSAGAKCMNGKCKCYPH; UniProt P40755 1-39, looked up)”, the IC50 is given as 0.1 nM.
